# Assay results: the supplement of paper PMC11316812
# ± gives the standard deviation of the averaged measurements.
# Legend:
# hTERT-HMEC = experiment: percentage of EdU-negative (G0-arrested) nuclei per well, 72 h; higher = more G0 arrest; settings: reference: sequence is the full UniProt precursor, the tested protein was the secreted form or ectodomain
# MCF7 = experiment: as above; settings: reference: sequence is the full UniProt precursor, the tested protein was the secreted form or ectodomain
# [1] = protein concentration 0.0125 µM
# [2] = protein concentration 0.0225 µM
# [3] = protein concentration 0.01525 µM
# [4] = protein concentration 0.1525 µM
# [5] = protein concentration 0.00725 µM
# [6] = protein concentration 0.0725 µM
# [7] = protein concentration 0.0293325 µM
# [8] = protein concentration 0.293325 µM
# 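Note: secreted proteins added to cultured cells, EdU pulse at the end, nuclei found by Hoechst imaging, EdU status from nuclear versus surrounding ring intensity ratio, PBS as neutral control.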
sequence,measurement,setting,value
MPRSCCSRSGALLLALLLQASMEVRGWCLESSQCQDLTTESNLLECIRACKPDLSAETPMFPGNGDEQPLTENPRKYVMGHFRWDRFGRRNSSSSGSSGAGQKREDVSAGEDCGPLPEGGPEPRSDGAKPGPREGKRSYSMEHFRWGKPVGKKRRPVKVYPNGAEDESAEAFPLEFKRELTGQRLREGDGPDGPADDGAGAQADLEHSLLVAAEKKDEGPYRMEHFRWGSPPKDKRYGGFMTSEKSQTPLVTLFKNAIIKNAYKKGE,percentage of EdU-negative,hTERT-HMEC; [1],4.65 ± 0.64%
same,percentage of EdU-negative,hTERT-HMEC; protein concentration 0.125 µM,8.66 ± 0.81%
same,percentage of EdU-negative,MCF7; [1],24.3 ± 6.1%
same,percentage of EdU-negative,MCF7; protein concentration 0.125 µM,24.787 ± 0.0019%
MPRYGASLRQSCPRSGREQGQDGTAGAPGLLWMGLVLALALALALALALSDSRVLWAPAEAHPLSPQGHPARLHRIVPRLRDVFGWGNLTCPICKGLFTAINLGLKKEPNVARVGSVAIKLCNLLKIAPPAVCQSIVHLFEDDMVEVWRRSVLSPSEACGLLLGSTCGHWDIFSSWNISLPTVPKPPPKPPSPPAPGAPVSRILFLTDLHWDHDYLEGTDPDCADPLCCRRGSGLPPASRPGAGYWGEYSKCDLPLRTLESLLSGLGPAGPFDMVYWTGDIPAHDVWHQTRQDQLRALTTVTALVRKFLGPVPVYPAVGNHESTPVNSFPPPFIEGNHSSRWLYEAMAKAWEPWLPAEALRTLRIGGFYALSPYPGLRLISLNMNFCSRENFWLLINSTDPAGQLQWLVGELQAAEDRGDKVHIIGHIPPGHCLKSWSWNYYRIVARYENTLAAQFFGHTHVDEFEVFYDEETLSRPLAVAFLAPSATTYIGLNPGYRVYQIDGNYSGSSHVVLDHETYILNLTQANIPGAIPHWQLLYRARETYGLPNTLPTAWHNLVYRMRGDMQLFQTFWFLYHKGHPPSEPCGTPCRLATLCAQLSARADSPALCRHLMPDGSLPEAQSLWPRPLFC,percentage of EdU-negative,hTERT-HMEC; [2],4.79 ± 0.51%
same,percentage of EdU-negative,hTERT-HMEC; protein concentration 0.225 µM,5.82 ± 1.2%
same,percentage of EdU-negative,MCF7; [2],24.3 ± 1.8%
same,percentage of EdU-negative,MCF7; protein concentration 0.225 µM,24.4 ± 1.7%
MPRYVPLLLLLLLLRCSERGGGVNFGEKDAKVPGTWRDGVRVPGEGASWDSDRASPERRYGIVGLSQSISTKHPETSPKDSRIRENDVTADGRTTEDHITADPGTTEDSVTADPGTTEDNVTVDPGTTEGSVTADPATTKDYVSADPGTTKDSVTADPGTTENFVTADPGTTKDSITADPRTTEDSVTADPGTTKHSITVDPGTTEDSVTADPGTTKHSITADPGTTEDSVTADPGTTEDETTKHGDTHLL [E2RYF7],percentage of EdU-negative,hTERT-HMEC; [2],5.3 ± 1.4%
same,percentage of EdU-negative,hTERT-HMEC; protein concentration 0.225 µM,5.54 ± 0.41%
same,percentage of EdU-negative,MCF7; [2],23.6 ± 2.3%
same,percentage of EdU-negative,MCF7; protein concentration 0.225 µM,24.8 ± 0.67%
MPSLLVLTFSPCVLLGWALLAGGTGGGGVGGGGGGAGIGGGRQEREALPPQKIEVLVLLPQDDSYLFSLTRVRPAIEYALRSVEGNGTGRRLLPPGTRFQVAYEDSDCGNRALFSLVDRVAAARGAKPDLILGPVCEYAAAPVARLASHWDLPMLSAGALAAGFQHKDSEYSHLTRVAPAYAKMGEMMLALFRHHHWSRAALVYSDDKLERNCYFTLEGVHEVFQEEGLHTSIYSFDETKDLDLEDIVRNIQASERVVIMCASSDTIRSIMLVAHRHGMTSGDYAFFNIELFNSSSYGDGSWKRGDKHDFEAKQAYSSLQTVTLLRTVKPEFEKFSMEVKSSVEKQGLNMEDYVNMFVEGFHDAILLYVLALHEVLRAGYSKKDGGKIIQQTWNRTFEGIAGQVSIDANGDRYGDFSVIAMTDVEAGTQEVIGDYFGKEGRFEMRPNVKYPWGPLKLRIDENRIVEHTNSSPCKSSGGLEESAVTGIVVGALLGAGLLMAFYFFRKKYRITIERRTQQEESNLGKHRELREDSIRSHFSVA,percentage of EdU-negative,hTERT-HMEC; [2],4.9 ± 0.22%
same,percentage of EdU-negative,hTERT-HMEC; protein concentration 0.225 µM,6.51 ± 0.27%
same,percentage of EdU-negative,MCF7; [2],24.88 ± 0.14%
same,percentage of EdU-negative,MCF7; protein concentration 0.225 µM,24.5 ± 1%
MPSSTAMAVGALSSSLLVTCCLMVALCSPSIPLEKLAQAPEQPGQEKREHASRDGPGRVNELGRPARDEGGSGRDWKSKSGRGLAGREPWSKLKQAWVSQGGGAKAGDLQVRPRGDTPQAEALAAAAQDAIGPELAPTPEPPEEYVYPDYRGKGCVDESGFVYAIGEKFAPGPSACPCLCTEEGPLCAQPECPRLHPRCIHVDTSQCCPQCKERKNYCEFRGKTYQTLEEFVVSPCERCRCEANGEVLCTVSACPQTECVDPVYEPDQCCPICKNGPNCFAETAVIPAGREVKTDECTICHCTYEEGTWRIERQAMCTRHECRQM [Q2TAL6],percentage of EdU-negative,hTERT-HMEC; [3],5.49 ± 1.1%
same,percentage of EdU-negative,hTERT-HMEC; [4],7.17 ± 0.096%
same,percentage of EdU-negative,MCF7; [3],22.8 ± 3.1%
same,percentage of EdU-negative,MCF7; [4],25.17 ± 0.21%
MPSWALFMVTSCLLLAPQNLAQVSSQDVSLLASDSEPLKCFSRTFEDLTCFWDEEEAAPSGTYQLLYAYPREKPRACPLSSQSMPHFGTRYVCQFPDQEEVRLFFPLHLWVKNVFLNQTRTQRVLFVDSVGLPAPPSIIKAMGGSQPGELQISWEEPAPEISDFLRYELRYGPRDPKNSTGPTVIQLIATETCCPALQRPHSASALDQSPCAQPTMPWQDGPKQTSPSREASALTAEGGSCLISGLQPGNSYWLQLRSEPDGISLGGSWGSWSLPVTVDLPGDAVALGLQCFTLDLKNVTCQWQQQDHASSQGFFYHSRARCCPRDRYPIWENCEEEEKTNPGLQTPQFSRCHFKSRNDSIIHILVEVTTAPGTVHSYLGSPFWIHQAVRLPTPNLHWREISSGHLELEWQHPSSWAAQETCYQLRYTGEGHQDWKVLEPPLGARGGTLELRPRSRYRLQLRARLNGPTYQGPWSSWSDPTRVETATETAWISLVTALHLVLGLSAVLGLLLLRWQFPAHYRRLRHALWPSLPDLHRVLGQYLRDTAALSPPKATVSDTCEEVEPSLLEILPKSSERTPLPLCSSQAQMDYRRLQPSCLGTMPLSVCPPMAESGSCCTTHIANHSYLPLSYWQQP,percentage of EdU-negative,hTERT-HMEC; [5],4.77 ± 0.37%
same,percentage of EdU-negative,hTERT-HMEC; [6],6.04 ± 0.21%
same,percentage of EdU-negative,MCF7; [5],25.4 ± 0.65%
same,percentage of EdU-negative,MCF7; [6],26.02 ± 0.25%
MPVMRLFPCFLQLLAGLALPAVPPQQWALSAGNGSSEVEVVPFQEVWGRSYCRALERLVDVVSEYPSEVEHMFSPSCVSLLRCTGCCGDENLHCVPVETANVTMQLLKIRSGDRPSYVELTFSQHVRCECRHSPGRQSPDMPGDFRADAPSFLPPRRSLPMLFRMEWGCALTGSQSAVWPSSPVPEEIPRMHPGRNGKKQQRKPLREKMKPERCGDAVPRR,percentage of EdU-negative,hTERT-HMEC; [7],4.772 ± 0.0079%
same,percentage of EdU-negative,hTERT-HMEC; [8],5.02 ± 0.86%
same,percentage of EdU-negative,MCF7; [7],24.4 ± 0.58%
same,percentage of EdU-negative,MCF7; [8],25.4 ± 0.6%
